Columns and labels:
[1] = test system: classical pathway-mediated hemolytic activity (thioester of C3); conditions: read-out: 50% inhibitory concentration, classical pathway-mediated hemolytic activity; cited from earlier work
[2] = test system: alternative pathway-mediated hemolytic activity (thioester of C3); conditions: read-out: 50% inhibitory concentration, alternative pathway-mediated hemolytic activity; cited from earlier work
[3] = target: T1, C3d (Homo sapiens, UniProt P01024); assay: Phage clone binding ELISA, immobilized C3d; conditions: 2 μg coated, 1 hour 22° C.
T1 construct: C3d, 35,000 Mr fragment of C3 generated using elastase; from tissue; host or cells: normal human plasma; C3 treated with elastase, Mono Q purified
T1 sequence (P01024 1002-1303 limits assumed): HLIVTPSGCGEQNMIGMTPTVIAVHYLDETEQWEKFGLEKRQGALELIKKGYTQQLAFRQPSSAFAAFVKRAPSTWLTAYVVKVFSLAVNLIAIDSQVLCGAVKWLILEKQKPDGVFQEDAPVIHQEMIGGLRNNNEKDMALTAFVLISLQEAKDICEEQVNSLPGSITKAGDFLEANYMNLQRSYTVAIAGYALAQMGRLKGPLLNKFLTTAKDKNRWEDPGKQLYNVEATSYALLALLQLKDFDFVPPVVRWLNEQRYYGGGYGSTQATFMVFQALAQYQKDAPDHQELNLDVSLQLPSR
Method: (§1) Microtiter wells were coated with 2 μg of C3, C3b, C3c or C3d, saturated with blocking buffer, washed with PBS (pH 7.4) containing 0.05% Tween 20, and incubated 1 hour at 22° C. with a positive (clone 9) or negative (clone 1) clone. Binding was inhibited by adding 250 μg/ml of aggregated C3 in PBS, pH 7.4. Bound M13 phage particles were detected by peroxidase-coupled anti-M13 antibody and ABTS peroxidase substrate. Diagonally lined bars represent peroxidase-coupled anti-M13 antibody bound non-specifically to the plate; cross-hatched bars represent clone 9 bound to C3 or C3 fragments; horizontally lined bars represent clone 9 bound to C3 or C3 fragments in the presence of 250 μg/ml of aggregated C3; and vertically lined bars represent clone 1 bound to C3 or C3 fragments.
(§2) The C3-binding phage was isolated by screening the phage library described in Example 3. Microtiter well plates (Nunc Inc., Naperville, Ill.) were coated overnight with 20 μg of C3b in PBS at 4° C. and blocked with PBS containing 1% BSA for 30 minutes at 22° C. […] The amplified phage mixture obtained after the third round of amplification was plated, and positive phage were identified by confirming their binding to C3b in an ELISA, in which bound phage were detected by peroxidase-labeled anti-M13 antibody (Pharmacia). […]

[4] = target: T2, C3b (Homo sapiens, UniProt P01024); assay: Phage clone binding ELISA, immobilized C3b; conditions: 2 μg coated, 1 hour 22° C.
T2 construct: from tissue; host or cells: normal human plasma; C3 cleaved with trypsin, Mono Q purified
T2 sequence (P01024 23-667 limits assumed): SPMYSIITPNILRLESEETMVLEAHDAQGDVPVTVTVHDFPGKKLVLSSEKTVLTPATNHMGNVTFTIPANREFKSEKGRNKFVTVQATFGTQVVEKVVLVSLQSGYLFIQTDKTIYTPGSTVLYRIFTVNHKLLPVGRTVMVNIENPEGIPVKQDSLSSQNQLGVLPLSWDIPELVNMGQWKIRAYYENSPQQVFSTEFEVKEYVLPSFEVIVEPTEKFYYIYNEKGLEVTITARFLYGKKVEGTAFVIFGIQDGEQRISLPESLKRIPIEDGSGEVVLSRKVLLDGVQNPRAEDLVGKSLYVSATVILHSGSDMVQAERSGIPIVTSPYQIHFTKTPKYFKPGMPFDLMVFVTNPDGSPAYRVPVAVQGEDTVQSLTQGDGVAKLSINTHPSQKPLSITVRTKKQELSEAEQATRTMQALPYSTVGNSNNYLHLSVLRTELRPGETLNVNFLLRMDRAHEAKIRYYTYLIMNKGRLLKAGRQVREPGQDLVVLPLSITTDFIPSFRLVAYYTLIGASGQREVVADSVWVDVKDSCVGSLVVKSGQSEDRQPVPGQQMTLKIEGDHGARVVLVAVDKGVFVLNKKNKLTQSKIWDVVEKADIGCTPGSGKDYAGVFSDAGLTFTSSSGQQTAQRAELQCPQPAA
T2 sequence (P01024 749-1663 limits assumed): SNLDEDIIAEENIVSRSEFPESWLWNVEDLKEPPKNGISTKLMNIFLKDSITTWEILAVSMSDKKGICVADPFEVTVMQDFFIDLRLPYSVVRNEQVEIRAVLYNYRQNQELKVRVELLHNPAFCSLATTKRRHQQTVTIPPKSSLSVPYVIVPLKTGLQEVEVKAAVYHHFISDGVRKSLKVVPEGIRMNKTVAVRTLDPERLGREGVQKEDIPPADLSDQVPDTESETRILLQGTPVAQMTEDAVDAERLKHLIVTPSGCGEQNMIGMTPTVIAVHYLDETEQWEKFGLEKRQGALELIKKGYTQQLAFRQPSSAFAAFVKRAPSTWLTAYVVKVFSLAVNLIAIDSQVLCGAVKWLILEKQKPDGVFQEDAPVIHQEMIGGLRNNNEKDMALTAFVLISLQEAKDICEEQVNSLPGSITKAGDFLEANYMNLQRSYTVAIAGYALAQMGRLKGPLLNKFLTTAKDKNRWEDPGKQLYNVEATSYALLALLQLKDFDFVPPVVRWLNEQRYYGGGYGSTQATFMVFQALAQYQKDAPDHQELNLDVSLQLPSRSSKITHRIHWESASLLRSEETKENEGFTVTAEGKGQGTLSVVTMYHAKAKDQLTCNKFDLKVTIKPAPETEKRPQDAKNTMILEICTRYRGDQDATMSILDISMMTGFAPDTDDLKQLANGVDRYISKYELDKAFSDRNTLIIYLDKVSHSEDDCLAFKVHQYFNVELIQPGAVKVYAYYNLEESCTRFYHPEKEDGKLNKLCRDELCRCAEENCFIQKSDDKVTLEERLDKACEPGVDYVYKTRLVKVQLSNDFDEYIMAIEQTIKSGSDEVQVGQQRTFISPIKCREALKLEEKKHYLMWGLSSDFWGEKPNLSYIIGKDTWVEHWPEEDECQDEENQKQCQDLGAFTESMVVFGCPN
Method: as §1, §2

[5] = target: T3, C3c (Homo sapiens, UniProt P01024); assay: Phage clone binding ELISA, immobilized C3c; conditions: 2 μg coated, 1 hour 22° C.
T3 construct: C3c, 135,300 Mr fragment of C3 generated using elastase; from tissue; host or cells: normal human plasma; C3 treated with elastase, Mono Q purified
T3 sequence (P01024 23-667 limits assumed): as the sequence (P01024 23-667 limits assumed) above
T3 sequence (P01024 749-954 limits assumed): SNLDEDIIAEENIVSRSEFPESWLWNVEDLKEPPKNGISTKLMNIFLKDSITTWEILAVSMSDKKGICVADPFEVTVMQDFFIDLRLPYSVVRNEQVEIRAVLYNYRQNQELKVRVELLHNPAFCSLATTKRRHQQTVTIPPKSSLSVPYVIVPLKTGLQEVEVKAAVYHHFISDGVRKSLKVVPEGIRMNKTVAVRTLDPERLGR
T3 sequence (P01024 1321-1663 limits assumed): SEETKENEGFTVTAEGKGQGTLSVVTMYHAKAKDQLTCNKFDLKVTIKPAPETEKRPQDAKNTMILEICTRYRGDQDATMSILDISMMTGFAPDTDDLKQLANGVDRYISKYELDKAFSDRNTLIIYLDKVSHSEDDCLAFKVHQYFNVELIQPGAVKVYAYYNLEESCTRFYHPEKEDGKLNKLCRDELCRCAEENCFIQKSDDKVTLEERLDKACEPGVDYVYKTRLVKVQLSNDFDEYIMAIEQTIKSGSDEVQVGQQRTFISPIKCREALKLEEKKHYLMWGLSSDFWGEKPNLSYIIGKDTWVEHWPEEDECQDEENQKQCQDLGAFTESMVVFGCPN
Method: as §1, §2

[6] = target: T4, C3 (Homo sapiens, UniProt P01024); assay: Phage clone binding ELISA, immobilized C3; conditions: 2 μg coated, 1 hour 22° C.
T4 construct: purified from normal human plasma in accordance with well known procedures; from tissue; host or cells: normal human plasma (C3, factor B)
T4 sequence (P01024 23-667 limits assumed): as the sequence (P01024 23-667 limits assumed) above
T4 sequence (P01024 672-1663 limits assumed): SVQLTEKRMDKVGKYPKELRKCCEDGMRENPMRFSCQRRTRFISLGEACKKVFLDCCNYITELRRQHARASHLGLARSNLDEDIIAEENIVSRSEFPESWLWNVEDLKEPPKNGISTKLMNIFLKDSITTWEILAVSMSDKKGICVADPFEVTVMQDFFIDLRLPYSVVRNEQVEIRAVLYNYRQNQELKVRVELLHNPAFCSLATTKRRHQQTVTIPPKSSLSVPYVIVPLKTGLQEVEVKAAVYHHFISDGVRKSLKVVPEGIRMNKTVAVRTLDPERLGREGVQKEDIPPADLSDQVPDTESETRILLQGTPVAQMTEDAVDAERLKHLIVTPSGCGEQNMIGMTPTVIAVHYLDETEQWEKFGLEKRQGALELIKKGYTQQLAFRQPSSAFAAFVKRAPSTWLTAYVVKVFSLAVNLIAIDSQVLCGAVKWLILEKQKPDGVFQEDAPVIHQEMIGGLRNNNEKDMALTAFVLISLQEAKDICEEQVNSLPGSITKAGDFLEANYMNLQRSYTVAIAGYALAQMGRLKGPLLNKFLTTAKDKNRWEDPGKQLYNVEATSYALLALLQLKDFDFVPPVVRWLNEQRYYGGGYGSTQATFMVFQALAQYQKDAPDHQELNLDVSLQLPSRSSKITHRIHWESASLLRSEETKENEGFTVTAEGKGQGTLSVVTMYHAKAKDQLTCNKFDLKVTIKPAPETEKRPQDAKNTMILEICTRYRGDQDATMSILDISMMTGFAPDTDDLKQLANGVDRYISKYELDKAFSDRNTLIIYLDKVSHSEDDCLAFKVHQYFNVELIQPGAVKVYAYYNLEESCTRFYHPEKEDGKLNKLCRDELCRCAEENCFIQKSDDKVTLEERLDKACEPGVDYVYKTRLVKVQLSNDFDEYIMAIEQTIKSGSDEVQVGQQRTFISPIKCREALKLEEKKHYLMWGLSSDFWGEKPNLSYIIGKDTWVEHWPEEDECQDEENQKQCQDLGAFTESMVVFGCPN
Method: as §1, §2

[7] = test system: complement; conditions: in vivo; cited from earlier work

Q: Which results are given for `O=C(NO)c1ccccc1O` [salicyl hydroxamate]?
A: IC50 [1]: 280 µM; IC50 [2]: 33 µM

Q: Which results are given for “SSICVVQDWGHHRCTAGHMANLTSHASAIR [Clone 9]”?
A: binding of phage clone to C3d [3]: not to C3d; binding of phage clone to C3b [4]: bound; binding of phage clone to C3c [5]: bound; binding of phage clone to C3 [6]: bound

Q: For “sCR1: soluble form of CR1 (complement receptor 1)”, which “complement suppression in complement-dependent disease models” value [7] is on record?
A: suppresses complement

From patent publication US6319897A, “Peptides which inhibit complement activation” (priority 1999, dated 2001)
